Experimental data: paper PMC9352680, “A comprehensive thermodynamic model for RNA binding by the Saccharomyces cerevisiae Pumilio protein PUF4”

T1: PUF4 RNA-binding domain (Saccharomyces cerevisiae, UniProt P25339 537-888)
T1 sequence: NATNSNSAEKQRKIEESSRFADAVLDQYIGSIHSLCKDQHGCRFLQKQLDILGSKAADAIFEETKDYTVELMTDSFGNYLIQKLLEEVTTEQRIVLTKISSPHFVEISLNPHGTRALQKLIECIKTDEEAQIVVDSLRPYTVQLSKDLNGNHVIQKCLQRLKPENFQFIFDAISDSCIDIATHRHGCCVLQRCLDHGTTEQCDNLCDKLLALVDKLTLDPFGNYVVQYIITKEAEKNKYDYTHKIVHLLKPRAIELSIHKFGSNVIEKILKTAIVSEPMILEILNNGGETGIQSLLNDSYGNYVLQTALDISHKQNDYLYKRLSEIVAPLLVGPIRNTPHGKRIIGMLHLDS


Target: T1, PUF4 RNA-binding domain
Assay: Mg; RNA-MaP; 20 mM Na-HEPES pH 7.4, 30 mM KOAc, 0.75 mM MgCl2, 0.1% Tween-20, 5% glycerol, 0.1 mg/mL BSA, 2 mM DTT; 25 C; 0.0125-409.6 nM protein
Settings: tags: N-His6-TEV cleaved; C-SNAP kept, Cy3B-labelled; label: tethered on chip by stalled RNA polymerase

| Binder | Kd [nM] |
| --- | --- |
| UCUCUUUUUUGUAUUUAAGUUCUCUU (ssRNA) [Id_iii_S1_P4E.9_K4.5_C4.3_[C-2T]_H4.1_A4.2_F4.2_T4.2] | 618 |
| UCUCUUUGUUGUAUUUAAGUUCUCUU (ssRNA) [Id_iii_S1_P4E.9_K4.5_C4.3_[C-2G]_H4.1_A4.2_F4.2_T4.2] | 155 |
| UCUCUUCCUUGUAAUAUUAUAUCUCUU (ssRNA) [Id_iii_S1_P5E.8_K5.4_C5.3_[T-3C]_H5.1_A5.2_F5.1_T5.2] | 8.43 |
| UCUCUUUCUUGUAUUUUAAUUCUCUU (ssRNA) [Id_iii_S1_P4E.8_K4.4_C4.3_H4.1_A4.2_F4.1_T4.2_[G10A]] | 3.62 |
| UCUCUUUCUACACUAUUACUUCUCUU (ssRNA) [Id_iii_S1_P4E.7_K4.3_C4.3_H4.3_A4.1_F4.1_T4.2_[G10C]] | 2190 |
| UCUCUUUCUUGUAAUAUUAUGUCUCUU (ssRNA) [Id_iii_S1_P5E.8_K5.4_C5.3_H5.1_A5.2_F5.1_T5.2_[A12G]] | 10 |
| UCUCUUACUACACUUAUUAUAUCUCUU (ssRNA) [Id_iii_S1_P5E.7_K5.3_C5.3_[T-3A]_H5.3_A5.1_F5.1_T5.2] | 1570 |
| UCUCUUUCAUGUAUUUAAGUUCUCUU (ssRNA) [Id_iii_S1_P4E.9_K4.5_C4.3_[T-1A]_H4.1_A4.2_F4.2_T4.2] | 648 |
| UCUCUUUGUUUAAUUAUCUCUU (ssRNA) [Ib_S1_P5E.1_K5.1_C5.1_H5.1_[A4T]_A5.1_[T6A]_F5.1_T5.1] | 44.6 |
| UCUCUUUCUUGUAAUAUUAUCUCUCUU (ssRNA) [Id_iii_S1_P5E.8_K5.4_C5.3_H5.1_A5.2_F5.1_T5.2_[A12C]] | 6.29 |
| UCUCUUUUUACACUAUUAGUUCUCUU (ssRNA) [Id_iii_S1_P4E.7_K4.3_C4.3_[C-2T]_H4.3_A4.1_F4.1_T4.2] | 1680 |
| UCUCUUUAUUGUAAUAUUAUAUCUCUU (ssRNA) [Id_iii_S1_P5E.8_K5.4_C5.3_[C-2A]_H5.1_A5.2_F5.1_T5.2] | 9.11 |
| UCUCUUUGUGUUUUUAUCUCUU (ssRNA) [Ib_S1_P5E.1_K5.1_C5.1_H5.1_[A4G]_A5.1_[A7T]_F5.1_T5.1] | 26.8 |
| UCUCUUUCUUGUAUUUAAAUUCUCUU (ssRNA) [Id_iii_S1_P4E.9_K4.5_C4.3_H4.1_A4.2_F4.2_T4.2_[G10A]] | 96.9 |
| UCUCUUUCUUGUAUUAUUAUGUCUCUU (ssRNA) [Id_iii_S1_P5E.5_K5.1_C5.3_H5.1_A5.1_F5.1_T5.2_[A12G]] | 8.55 |
| UCUCUUUCUUGUAAUAUUAUUUCUCUU (ssRNA) [Id_iii_S1_P5E.8_K5.4_C5.3_H5.1_A5.2_F5.1_T5.2_[A12T]] | 7.29 |
| UCUCUUUCUUAUAUUAUUAUUUCUCUU (ssRNA) [Id_iii_S1_P5E.6_K5.2_C5.3_H5.2_A5.1_F5.1_T5.2_[A12T]] | 372 |
| UCUCUUUCUACACUUAUUAUGUCUCUU (ssRNA) [Id_iii_S1_P5E.7_K5.3_C5.3_H5.3_A5.1_F5.1_T5.2_[A12G]] | > 2300 |
| UCUCUUUCUUAUAUUAUUACAUCUCUU (ssRNA) [Id_iii_S1_P5E.6_K5.2_C5.3_H5.2_A5.1_F5.1_T5.2_[T11C]] | 450 |
| UCUCUUCCUACACUUAUUAUAUCUCUU (ssRNA) [Id_iii_S1_P5E.7_K5.3_C5.3_[T-3C]_H5.3_A5.1_F5.1_T5.2] | > 2300 |
| UCUCUUUCUUGUAUUUUAUUUCUCUU (ssRNA) [Id_iii_S1_P4E.8_K4.4_C4.3_H4.1_A4.2_F4.1_T4.2_[G10T]] | 2.43 |
| UCUCUUUGUAUUUUUAUCUCUU (ssRNA) [Ia_S1_P5E.1_K5.1_C5.1_H5.1_A5.1_[A7T]_F5.1_T5.1] | 3.57 |
| UCUCUUUCCUGUAAUAUUAUAUCUCUU (ssRNA) [Id_iii_S1_P5E.8_K5.4_C5.3_[T-1C]_H5.1_A5.2_F5.1_T5.2] | 7.32 |
| UCUCUUUCGUGUAUUUUAGUUCUCUU (ssRNA) [Id_iii_S1_P4E.8_K4.4_C4.3_[T-1G]_H4.1_A4.2_F4.1_T4.2] | 1.23 |

| Binder | Kd [nM] |
| --- | --- |
| UCUCUUUCUUGUAUUUUAGCUCUCUU (ssRNA) [Id_iii_S1_P4E.8_K4.4_C4.3_H4.1_A4.2_F4.1_T4.2_[T11C]] | 1.07 |
| UCUCUUUCUUAUAUUAUUAUCUCUCUU (ssRNA) [Id_iii_S1_P5E.6_K5.2_C5.3_H5.2_A5.1_F5.1_T5.2_[A12C]] | 471 |
| UCUCUUUCUUGUAUUAUUAUUUCUCUU (ssRNA) [Id_iii_S1_P5E.5_K5.1_C5.3_H5.1_A5.1_F5.1_T5.2_[A12T]] | 4.34 |
| UCUCUUACUUGUAAUAUUAUAUCUCUU (ssRNA) [Id_iii_S1_P5E.8_K5.4_C5.3_[T-3A]_H5.1_A5.2_F5.1_T5.2] | 13.7 |
| UCUCUUUUUUGUAUUUUAGUUCUCUU (ssRNA) [Id_iii_S1_P4E.8_K4.4_C4.3_[C-2T]_H4.1_A4.2_F4.1_T4.2] | 1.81 |
| UCUCUUUGUUGUAUUUUAGUUCUCUU (ssRNA) [Id_iii_S1_P4E.8_K4.4_C4.3_[C-2G]_H4.1_A4.2_F4.1_T4.2] | 2.23 |
| UCUCUUUCUUGUAUUUAACUUCUCUU (ssRNA) [Id_iii_S1_P4E.9_K4.5_C4.3_H4.1_A4.2_F4.2_T4.2_[G10C]] | 70.1 |
| UCUCUUUCAUGUAUUUUAGUUCUCUU (ssRNA) [Id_iii_S1_P4E.8_K4.4_C4.3_[T-1A]_H4.1_A4.2_F4.1_T4.2] | 1.37 |
| UCUCUUUAUACACUUAUUAUAUCUCUU (ssRNA) [Id_iii_S1_P5E.7_K5.3_C5.3_[C-2A]_H5.3_A5.1_F5.1_T5.2] | 720 |
| UCUCUUUCUACACUUAUUAUUUCUCUU (ssRNA) [Id_iii_S1_P5E.7_K5.3_C5.3_H5.3_A5.1_F5.1_T5.2_[A12T]] | > 2300 |
| UCUCUUUCUUAUAUUAUUAAAUCUCUU (ssRNA) [Id_iii_S1_P5E.6_K5.2_C5.3_H5.2_A5.1_F5.1_T5.2_[T11A]] | 551 |
| UCUCUUUGUCUUGUUAUCUCUU (ssRNA) [Ib_S1_P5E.1_K5.1_C5.1_H5.1_[A4C]_A5.1_[A7G]_F5.1_T5.1] | 475 |
| UCUCUUUCUACACUUAUUACAUCUCUU (ssRNA) [Id_iii_S1_P5E.7_K5.3_C5.3_H5.3_A5.1_F5.1_T5.2_[T11C]] | > 2300 |
| UCUCUUUCUACACUAUUAAUUCUCUU (ssRNA) [Id_iii_S1_P4E.7_K4.3_C4.3_H4.3_A4.1_F4.1_T4.2_[G10A]] | > 2300 |
| UCUCUUUCUUGUAUUAUUAAAUCUCUU (ssRNA) [Id_iii_S1_P5E.5_K5.1_C5.3_H5.1_A5.1_F5.1_T5.2_[T11A]] | 11.1 |
| UCUCUUUGUACACUUAUUAUAUCUCUU (ssRNA) [Id_iii_S1_P5E.7_K5.3_C5.3_[C-2G]_H5.3_A5.1_F5.1_T5.2] | 3.9 |
| UCUCUUUCGUGUAUUUAAGUUCUCUU (ssRNA) [Id_iii_S1_P4E.9_K4.5_C4.3_[T-1G]_H4.1_A4.2_F4.2_T4.2] | 694 |
| UCUCUUUGUUUCAUUAUCUCUU (ssRNA) [Ib_S1_P5E.1_K5.1_C5.1_H5.1_[A4T]_A5.1_[T6C]_F5.1_T5.1] | 24.4 |
| UCUCUUUCUUGUAAUAUUAAAUCUCUU (ssRNA) [Id_iii_S1_P5E.8_K5.4_C5.3_H5.1_A5.2_F5.1_T5.2_[T11A]] | 11.3 |
| UCUCUUUAUACACUAUUAGUUCUCUU (ssRNA) [Id_iii_S1_P4E.7_K4.3_C4.3_[C-2A]_H4.3_A4.1_F4.1_T4.2] | 39.2 |
| UCUCUUUCCUGUAUUUAAGUUCUCUU (ssRNA) [Id_iii_S1_P4E.9_K4.5_C4.3_[T-1C]_H4.1_A4.2_F4.2_T4.2] | 460 |
| UCUCUUUCCACACUUAUUAUAUCUCUU (ssRNA) [Id_iii_S1_P5E.7_K5.3_C5.3_[T-1C]_H5.3_A5.1_F5.1_T5.2] | > 2300 |
| UCUCUUUCUUGUAUUAUUAUCUCUCUU (ssRNA) [Id_iii_S1_P5E.5_K5.1_C5.3_H5.1_A5.1_F5.1_T5.2_[A12C]] | 6 |
| UCUCUUUCUACACUAUUAUUUCUCUU (ssRNA) [Id_iii_S1_P4E.7_K4.3_C4.3_H4.3_A4.1_F4.1_T4.2_[G10T]] | > 2300 |
